Test results: US20240368301A1 (HANGZHOU JIUYUAN GENE ENGINEERING, published 2024)
Substitutions are numbered along the chain they refer to. Names may count otherwise. Each block holds one binder with its values, some of them ahead of it.

Experiments:
[1] = molecular target: T1, SIRPα V2-his (made by transient transfection of HEK293F cells according to SEQ ID NO:38) (Homo sapiens (Human), UniProt P78324 31-373); experiment: competition ELISA: coated SIRPα-V2-his, antibody titrated against biotin-CD47, streptavidin-HRP (panel SIRPα-V2-CD47)
T1 construct: it is the full-length precursor, starting with MEPAG... and including the transmembrane and cytoplasmic parts; not shown: His tag
T1 sequence (P78324 other isoform, or with tags, fused parts or gaps limits assumed): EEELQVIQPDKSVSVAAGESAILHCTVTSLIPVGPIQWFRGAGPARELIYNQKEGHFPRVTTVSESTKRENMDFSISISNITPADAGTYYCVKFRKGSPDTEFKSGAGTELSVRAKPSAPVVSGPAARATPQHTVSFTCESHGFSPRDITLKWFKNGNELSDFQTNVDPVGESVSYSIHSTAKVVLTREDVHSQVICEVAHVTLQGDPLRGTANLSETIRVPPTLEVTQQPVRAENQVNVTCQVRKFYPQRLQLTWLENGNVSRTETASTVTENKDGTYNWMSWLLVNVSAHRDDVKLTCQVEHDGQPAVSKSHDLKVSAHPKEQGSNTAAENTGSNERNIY

[2] = molecular target: T2, SIRPα V1-his (ACRO, Cat #SIA-H5225) (human, UniProt P78324 31-370); experiment: competition ELISA: coated SIRPα-V1-his, antibody titrated against biotin-CD47, streptavidin-HRP (panel SIRPα-V1-CD47)
T2 construct: not shown: His tag
T2 sequence (P78324 31-370 limits assumed): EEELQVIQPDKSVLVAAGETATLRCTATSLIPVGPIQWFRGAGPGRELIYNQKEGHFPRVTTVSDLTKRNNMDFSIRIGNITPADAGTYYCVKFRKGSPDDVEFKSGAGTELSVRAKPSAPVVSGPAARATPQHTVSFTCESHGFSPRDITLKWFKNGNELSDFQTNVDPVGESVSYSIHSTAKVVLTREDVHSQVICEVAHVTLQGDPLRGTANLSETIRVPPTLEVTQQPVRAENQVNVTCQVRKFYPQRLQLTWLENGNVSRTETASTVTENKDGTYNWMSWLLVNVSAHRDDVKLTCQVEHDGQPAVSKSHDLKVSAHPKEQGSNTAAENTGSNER

[3] = molecular target: T3, SIRPα-V2 on CHOZN-SIRPα-V2 cells (Homo sapiens (Human), UniProt P78324 31-504); experiment: FACS on cells carrying the target
T3 sequence (P78324 other isoform, or with tags, fused parts or gaps limits assumed): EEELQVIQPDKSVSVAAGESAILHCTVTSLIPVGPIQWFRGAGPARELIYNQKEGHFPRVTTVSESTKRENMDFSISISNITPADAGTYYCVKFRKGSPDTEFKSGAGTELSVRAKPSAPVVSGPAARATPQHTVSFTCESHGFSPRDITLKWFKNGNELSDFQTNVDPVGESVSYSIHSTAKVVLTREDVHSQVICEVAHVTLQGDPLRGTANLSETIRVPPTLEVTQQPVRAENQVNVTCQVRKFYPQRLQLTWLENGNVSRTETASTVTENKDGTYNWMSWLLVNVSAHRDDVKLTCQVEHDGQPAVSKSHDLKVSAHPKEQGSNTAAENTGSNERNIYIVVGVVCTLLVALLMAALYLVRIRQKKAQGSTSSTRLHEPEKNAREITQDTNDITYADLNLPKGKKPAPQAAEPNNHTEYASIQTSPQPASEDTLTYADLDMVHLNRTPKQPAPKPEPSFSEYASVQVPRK
Method: (§1) After washing, cells were stained with 0.2 μg goat anti-hIgG Fc-AF488 (Jackson ImmunoResearch, Cat #109-546-170) at 4° C. for 30 min. After washing again, cells were resuspended in 50 μL of DPBS/1% FBS and analyzed by FlowJo V10 and GraphPad Prism6 software.

[4] = molecular target: T4, SIRPα-V1 on 293T-SIRPα-V1 cells (human, UniProt P78324 31-504); experiment: FACS on cells carrying the target
T4 construct: Stably transfected cell line
T4 sequence (P78324 31-504): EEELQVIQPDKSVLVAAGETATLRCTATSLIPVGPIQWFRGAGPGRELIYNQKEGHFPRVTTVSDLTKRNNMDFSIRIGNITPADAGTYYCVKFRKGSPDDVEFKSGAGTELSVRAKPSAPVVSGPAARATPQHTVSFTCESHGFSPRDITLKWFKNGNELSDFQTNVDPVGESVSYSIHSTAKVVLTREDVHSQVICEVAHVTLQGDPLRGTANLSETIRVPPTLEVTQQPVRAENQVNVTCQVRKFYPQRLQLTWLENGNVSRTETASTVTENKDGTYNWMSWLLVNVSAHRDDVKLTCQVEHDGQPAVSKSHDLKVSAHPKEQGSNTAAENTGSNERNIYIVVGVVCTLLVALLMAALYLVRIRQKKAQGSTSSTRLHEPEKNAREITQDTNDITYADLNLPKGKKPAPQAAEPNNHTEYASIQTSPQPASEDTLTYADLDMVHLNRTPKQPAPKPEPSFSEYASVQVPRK
Method: as §1

[5] = molecular target: T5, SIRPα-V8 on stably transfected cells (Homo sapiens (Human), UniProt P78324 31-504); experiment: FACS on cells carrying the target
T5 construct: also called CHOZN-SIRPα-V8; 293T-SIRPα-V8
T5 sequence (P78324 other isoform, or with tags, fused parts or gaps limits assumed): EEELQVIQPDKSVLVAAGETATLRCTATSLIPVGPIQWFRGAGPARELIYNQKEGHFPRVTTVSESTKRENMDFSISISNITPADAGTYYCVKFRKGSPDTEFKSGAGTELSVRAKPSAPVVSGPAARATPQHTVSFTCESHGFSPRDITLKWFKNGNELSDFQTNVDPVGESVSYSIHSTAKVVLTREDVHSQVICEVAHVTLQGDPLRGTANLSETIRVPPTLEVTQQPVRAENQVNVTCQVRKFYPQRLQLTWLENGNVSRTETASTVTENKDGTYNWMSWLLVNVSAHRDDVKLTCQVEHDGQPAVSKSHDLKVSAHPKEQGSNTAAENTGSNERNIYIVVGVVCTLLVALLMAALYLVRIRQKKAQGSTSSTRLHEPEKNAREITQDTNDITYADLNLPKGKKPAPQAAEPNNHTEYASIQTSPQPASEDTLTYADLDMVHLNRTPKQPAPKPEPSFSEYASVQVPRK
Method: as §1

[6] = molecular target: T2, SIRPα V1-his (ACRO, Cat #SIA-H5225); experiment: ELISA
[7] = molecular target: T6, SIRPβ-his (Novoprotein, Cat #CS93) (UniProt O00241 30-371, limits assumed); experiment: ELISA
T6 sequence (O00241 30-371 limits assumed): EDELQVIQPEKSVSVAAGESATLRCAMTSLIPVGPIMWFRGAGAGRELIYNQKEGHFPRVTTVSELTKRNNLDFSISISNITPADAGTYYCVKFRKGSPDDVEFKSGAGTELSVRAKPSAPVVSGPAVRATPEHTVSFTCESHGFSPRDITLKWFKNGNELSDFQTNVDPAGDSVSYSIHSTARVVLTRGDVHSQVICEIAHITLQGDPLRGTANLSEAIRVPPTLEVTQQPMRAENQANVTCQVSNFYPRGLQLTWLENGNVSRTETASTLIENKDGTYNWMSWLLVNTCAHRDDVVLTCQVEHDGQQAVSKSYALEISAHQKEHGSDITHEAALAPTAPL

[8] = molecular target: T2, SIRPα V1-his (ACRO, Cat #SIA-H5225); experiment: BLI (Octet RED 96), His-tagged antigen on Ni-NTA sensor, antibody in solution
Method: (§2) SIRPα V1-his (ACRO, Cat #SIA-H5225), SIRPα V2-his (made by transient transfection of HEK293F cells according to SEQ ID NO:38 sequence), SIRPβ-his (Novoprotein, Cat #CS93), SIRPγ-his (Sino Biological, Cat #11828-H08H) or cynomolgus macaques SIRPα-his (ACRO, Cat #SIA-C52H7) at 5 μg/mL was loaded to a Ni-NTA biosensor for 600 s. […] The data were fitted to calculate the affinity.

[9] = molecular target: T6, SIRPβ-his (Novoprotein, Cat #CS93); experiment: as above
Method: as §2

[10] = molecular target: SIRPγ-his (Sino Biological, Cat #11828-H08H) (UniProt Q9P1W8 29-360); experiment: as above
SIRPγ-his (Sino Biological, Cat #11828-H08H), sequence (Q9P1W8 29-360 limits assumed): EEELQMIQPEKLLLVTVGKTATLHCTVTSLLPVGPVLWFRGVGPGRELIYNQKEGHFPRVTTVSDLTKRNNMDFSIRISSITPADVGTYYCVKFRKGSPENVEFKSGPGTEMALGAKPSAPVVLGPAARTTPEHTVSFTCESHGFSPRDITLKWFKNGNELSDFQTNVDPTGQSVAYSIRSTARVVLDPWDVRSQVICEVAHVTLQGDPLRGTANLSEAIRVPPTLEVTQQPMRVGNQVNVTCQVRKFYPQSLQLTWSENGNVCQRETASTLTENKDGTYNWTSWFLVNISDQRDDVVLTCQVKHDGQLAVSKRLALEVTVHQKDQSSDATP
Method: as §2

[11] = molecular target: T1, SIRPα V2-his (made by transient …); experiment: as above
Method: as §2

[12] = molecular target: T5, SIRPα-V8 on stably transfected cells; experiment: FACS titration on CHOZN-SIRPα-V8 cells, goat anti-hIgG-AF488 (panel SIRPα-V8)
Method: (§3) 2×10⁵ per well of stable transfer construct cell lines 293T-SIRPα-V1 (SEQ ID NO: 2), CHOZN-SIRPα-V2 (SEQ ID NO: 38), and CHOZN-SIRPα-V8 (SEQ ID NO: 39) in logarithmic phase were dispended in 96-well U-shaped culture plates, […] After washing, the cells were incubated with 0.2 μg of goat anti-hIgG-AF488 for 30 min at 4° C., then resuspended in 50 μL of DPBS/1% FBS and analyzed by flow cytometry with FlowJo V10 and GraphPad Prism6 software.

[13] = molecular target: T3, SIRPα-V2 on CHOZN-SIRPα-V2 cells; experiment: FACS titration on CHOZN-SIRPα-V2 cells, goat anti-hIgG Fc-AF488 (panel SIRPα-V2)
Method: as §1

[14] = molecular target: T4, SIRPα-V1 on 293T-SIRPα-V1 cells; experiment: FACS titration on 293T-SIRPα-V1 cells, goat anti-hIgG-AF488 (panel SIRPα-V1)
Method: as §3

[15] = molecular target: T3, SIRPα-V2 on CHOZN-SIRPα-V2 cells; experiment: competition FACS; CHOZN-SIRPα-V2 cells, FITC-labelled CD47 as competitor
Method: (§4) After washing, cells were analyzed by FlowJo V10 and GraphPad Prism6 software.

[16] = molecular target: T7, cynomolgus macaques SIRPα-his (ACRO, Cat #SIA-C52H7) (cynomolgus macaque, UniProt A0A2K5VYQ9 31-369); experiment: BLI (Octet RED 96), His-tagged antigen on Ni-NTA sensor, antibody in solution
T7 construct: also called Monkey SIRPα; cynomolgus macaque SIRPα
T7 sequence: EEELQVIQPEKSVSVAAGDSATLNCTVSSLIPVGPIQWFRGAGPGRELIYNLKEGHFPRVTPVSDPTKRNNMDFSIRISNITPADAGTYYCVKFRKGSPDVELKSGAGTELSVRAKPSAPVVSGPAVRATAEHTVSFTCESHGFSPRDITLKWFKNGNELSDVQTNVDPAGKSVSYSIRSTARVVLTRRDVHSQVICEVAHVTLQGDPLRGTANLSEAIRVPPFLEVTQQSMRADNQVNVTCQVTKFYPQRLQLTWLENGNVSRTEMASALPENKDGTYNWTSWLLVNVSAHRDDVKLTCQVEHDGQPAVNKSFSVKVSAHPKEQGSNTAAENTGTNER
Method: as §2

[17] = molecular target: T2, SIRPα V1-his (ACRO, Cat #SIA-H5225); experiment: SPR (Biacore), antibody captured by anti-Fc on CM5, 50 nM SIRPα V1-his injected, 1:1 model
Method: (§5) Using the Biacore analysis system, activators were prepared by mixing 400 mM EDC and 100 mM NHS and activated with a CM5 sensor chip at a flow rate of 10 μL/min for 420 s. Anti-Fc antibody at 30 μg/mL dissolved in 10 mM NaAc (pH 4.5) was injected into the channel at a flow rate of 10 μL/min and then closed with 1 M ethanolamine-HCl at a flow rate of 10 μL/min for 420 s. […] All experimental data were fitted using a 1:1 binding model.

[18] = molecular target: T4, SIRPα-V1 on 293T-SIRPα-V1 cells; experiment: competition FACS; 293T-SIRPα-V1 cells, FITC-labelled CD47 as competitor
Method: as §4

[19] = molecular target: T2, SIRPα V1-his (ACRO, Cat #SIA-H5225); experiment: competition ELISA; coated SIRPα-V1-his, biotin-CD47 as competitor
Method: 100 μL of 2.5 μg/mL of recombinant SIRPα-V1-his and SIRPα-V2-his were coated overnight at 4° C. in Maxisorp ELISA 96-well plates. […] […] VSWFSP (SEQ ID NO: 40)] and incubated in the microtiter plate for 1 h at 37° C. After washing, each well was added with Streptavdin-HRP (Thermo, Cat #434323), substrate TMB (Beyotime, Cat #P0209-100 mL), and read by an enzyme marker.

[20] = molecular target: T2, SIRPα V1-his (ACRO, Cat #SIA-H5225); experiment: SPR (Biacore), antibody captured by anti-Fc on CM5, 50 nM SIRPα V1-his injected
Method: as §5

- IC50 (read off the curve) [1]: ~30 nM
- IC50 (read off the curve) [2]: ~20 nM
- EC50 [3]: 3.65 nM
- EC50 [4]: 1.08 nM
- EC50 [5]: 8.76 nM
- EC50 [6]: 0.13 nM
- EC50 [7]: 0.196 nM
- Kd [8]: 0.115 nM
- koff [8]: 7.76e-05 s⁻¹
- kon [8]: 674000 M⁻¹ s⁻¹
- Kd [9]: 0.0137 nM
- koff [9]: 2.36e-05 s⁻¹
- kon [9]: 1.72e+06 M⁻¹ s⁻¹
- Kd [10]: 1.23 nM
- koff [10]: 0.000896 s⁻¹
- kon [10]: 728000 M⁻¹ s⁻¹
- Kd [11]: 1.07 nM
- koff [11]: 0.000601 s⁻¹
- kon [11]: 561000 M⁻¹ s⁻¹
B1: 18D5 (antibody, V domains shown)
VH: QVQLQQPGAELVRPGSSVKLSCKASGYTFTSYWVHWVKQRPIQGLEWIGNIDPSDSDTHYNQKFKDKASLTVDKSSSTAYMQLSSLTFEDSAVYYCVRGGTGTMAWFAYWGQGTLVTVSA
VL: DVVMTQTPLSLPVSLGDQASISCRSSQSLVHSYGNTYLYWYLQKPGQSPKLLIYRVSNRFSGVPDRFSGSGSGTDFTLKISRVEAEDLGVYFCFQGTHVPYTFGSGTKLEIK

- EC50 (read off the curve) [12]: ~2 nM
- EC50 [3]: 0.245 nM
- EC50 [4]: 0.615 nM
- EC50 [5]: 0.407 nM
- EC50 (read off the curve) [13]: ~4 nM
- EC50 (read off the curve) [14]: ~5 nM
- EC50 [6]: 0.0488 nM
- EC50 [7]: 0.271 nM
- IC50 [15]: 6.42 nM
- Kd [8]: 0.0111 nM
- koff [8]: 1.16e-05 s⁻¹
- kon [8]: 1.05e+06 M⁻¹ s⁻¹
- Kd [9]: 0.0353 nM
- koff [9]: 3.21e-05 s⁻¹
- kon [9]: 909000 M⁻¹ s⁻¹
- Kd [10]: 1.03 nM
- koff [10]: 0.000731 s⁻¹
- kon [10]: 709000 M⁻¹ s⁻¹
- Kd [16]: 0.43 nM
- koff [16]: 0.000498 s⁻¹
- kon [16]: 1.16e+06 M⁻¹ s⁻¹
- Kd [17]: 1.47 nM
- koff [17]: 0.00113 s⁻¹
- kon [17]: 770000 M⁻¹ s⁻¹
- IC50 [18]: 1.74 nM
- IC50 [19]: 5.26 nM
B2: AD4-12 (antibody, V domains shown)
VH: EVQLEESGPGLVAPSQSLSITCTVSGFSLTGYGVNWVRQPPGKGLEWLGIIWGDGSTDYNSALKSRLSISKDNSKSQVFLKMNSLQSDDTARYYCARAGKMDYWGQGTSVTVSS
VL: DIVLTQSPASLAVSLGQGATISCRASESVDSYGNSFMHWYQQKPGQPPKPLIYLASNLESGVPARFSGSGSRTDFTLTIDPVEADDAATYYCQQNNEYPWTFGGGTKLEIK
notes: Mouse variable domains joined to human kappa and human IgG1 constant regions (wild type = AD4-12-G1, L234A/L235A = AD4-12-G1lala); also called AD4-12-G1; AD4-12-G1lala

- binding result [20]: binds
B3: Z2 (antibody, IgG1, V domains shown)
VH: QVQLQESGPGLVKPSQTLSLTCTVSGFSLTGYGVNWIRQPPGKGLEWIGIIWGDGSTDYNSALKSRVTISVDTSKNQVFLKLSSVTAADTAVYYCARAGKMDYWGQGTTVTVSS
VL: B2 VL with L15P, G18R, S22T, P50L, D80N, D85N, T89N, L108V
notes: also called humanized variant Z2
